Biological target: the molecule itself
Assay: SEC; elution of purified point mutants compared with WT MtrR (Supplementary Figure S4); S200 column named in the purification

| Protein | stoichiometry N |
| --- | --- |
| MtrR wild type (natural protein, MtrR, TetR-family transcriptional repressor of Neisseria gonorrhoeae, product of the mtrR gene; also called WT MtrR; MtrR WT; source: expressed from the pMCSG7 vector, purified (Ni-NTA, TEV cleavage, Ni-NTA, S200 size exclusion); not shown: His6, N-terminal, cleaved) MRKTKTEALKTKEHLMLAALETFYRKGIARTSLNEIAQAAGVTRGALYWHFKNKEDLFDALFQRICDDIENCIAQDAADAEGGSWTVFRHTLLHFFERLQSNDIHYKFHNILFLKCEHTEQNAAVIAIARKHQAIWREKITAVLTEAVENQDLADDLDKETAVIFIKSTLDGLIWRWFSSGESFDLGKTAPRIIGIMMDNLENHPCLRRK | 2 |
| MtrR(W49A) (natural protein, Neisseria gonorrhoeae, MtrR of Neisseria gonorrhoeae, point mutant; Made by site-directed mutagenesis of the mtrR-pMCSG7 construct; source: expressed from the pMCSG7 vector, purified (Ni-NTA, TEV cleavage, Ni-NTA, S200 size exclusion); not shown: His6, N-terminal, cleaved) MRKTKTEALKTKEHLMLAALETFYRKGIARTSLNEIAQAAGVTRGALYAHFKNKEDLFDALFQRICDDIENCIAQDAADAEGGSWTVFRHTLLHFFERLQSNDIHYKFHNILFLKCEHTEQNAAVIAIARKHQAIWREKITAVLTEAVENQDLADDLDKETAVIFIKSTLDGLIWRWFSSGESFDLGKTAPRIIGIMMDNLENHPCLRRK | 2 |
| MtrR(G45A) (natural protein, Neisseria gonorrhoeae, MtrR of Neisseria gonorrhoeae, point mutant; Made by site-directed mutagenesis of the mtrR-pMCSG7 construct; source: expressed from the pMCSG7 vector, purified (Ni-NTA, TEV cleavage, Ni-NTA, S200 size exclusion); not shown: His6, N-terminal, cleaved) MRKTKTEALKTKEHLMLAALETFYRKGIARTSLNEIAQAAGVTRAALYWHFKNKEDLFDALFQRICDDIENCIAQDAADAEGGSWTVFRHTLLHFFERLQSNDIHYKFHNILFLKCEHTEQNAAVIAIARKHQAIWREKITAVLTEAVENQDLADDLDKETAVIFIKSTLDGLIWRWFSSGESFDLGKTAPRIIGIMMDNLENHPCLRRK | 2 |
| MtrR(Y48F) (natural protein, Neisseria gonorrhoeae, MtrR of Neisseria gonorrhoeae, point mutant; Made by site-directed mutagenesis of the mtrR-pMCSG7 construct; source: expressed from the pMCSG7 vector, purified (Ni-NTA, TEV cleavage, Ni-NTA, S200 size exclusion); not shown: His6, N-terminal, cleaved) MRKTKTEALKTKEHLMLAALETFYRKGIARTSLNEIAQAAGVTRGALFWHFKNKEDLFDALFQRICDDIENCIAQDAADAEGGSWTVFRHTLLHFFERLQSNDIHYKFHNILFLKCEHTEQNAAVIAIARKHQAIWREKITAVLTEAVENQDLADDLDKETAVIFIKSTLDGLIWRWFSSGESFDLGKTAPRIIGIMMDNLENHPCLRRK | 2 |
| MtrR(R44A) (natural protein, Neisseria gonorrhoeae, MtrR of Neisseria gonorrhoeae, point mutant; Made by site-directed mutagenesis of the mtrR-pMCSG7 construct; source: expressed from the pMCSG7 vector, purified (Ni-NTA, TEV cleavage, Ni-NTA, S200 size exclusion); not shown: His6, N-terminal, cleaved) MRKTKTEALKTKEHLMLAALETFYRKGIARTSLNEIAQAAGVTAGALYWHFKNKEDLFDALFQRICDDIENCIAQDAADAEGGSWTVFRHTLLHFFERLQSNDIHYKFHNILFLKCEHTEQNAAVIAIARKHQAIWREKITAVLTEAVENQDLADDLDKETAVIFIKSTLDGLIWRWFSSGESFDLGKTAPRIIGIMMDNLENHPCLRRK | 2 |
| MtrR(T43A) (natural protein, Neisseria gonorrhoeae, MtrR of Neisseria gonorrhoeae, point mutant; Made by site-directed mutagenesis of the mtrR-pMCSG7 construct; source: expressed from the pMCSG7 vector, purified (Ni-NTA, TEV cleavage, Ni-NTA, S200 size exclusion); not shown: His6, N-terminal, cleaved) MRKTKTEALKTKEHLMLAALETFYRKGIARTSLNEIAQAAGVARGALYWHFKNKEDLFDALFQRICDDIENCIAQDAADAEGGSWTVFRHTLLHFFERLQSNDIHYKFHNILFLKCEHTEQNAAVIAIARKHQAIWREKITAVLTEAVENQDLADDLDKETAVIFIKSTLDGLIWRWFSSGESFDLGKTAPRIIGIMMDNLENHPCLRRK | 2 |
| MtrR(H50A) (natural protein, Neisseria gonorrhoeae, MtrR of Neisseria gonorrhoeae, point mutant; Made by site-directed mutagenesis of the mtrR-pMCSG7 construct; source: expressed from the pMCSG7 vector, purified (Ni-NTA, TEV cleavage, Ni-NTA, S200 size exclusion); not shown: His6, N-terminal, cleaved) MRKTKTEALKTKEHLMLAALETFYRKGIARTSLNEIAQAAGVTRGALYWAFKNKEDLFDALFQRICDDIENCIAQDAADAEGGSWTVFRHTLLHFFERLQSNDIHYKFHNILFLKCEHTEQNAAVIAIARKHQAIWREKITAVLTEAVENQDLADDLDKETAVIFIKSTLDGLIWRWFSSGESFDLGKTAPRIIGIMMDNLENHPCLRRK | 2 |
| MtrR(T11A) (natural protein, Neisseria gonorrhoeae, MtrR of Neisseria gonorrhoeae, point mutant; Made by site-directed mutagenesis of the mtrR-pMCSG7 construct; source: expressed from the pMCSG7 vector, purified (Ni-NTA, TEV cleavage, Ni-NTA, S200 size exclusion); not shown: His6, N-terminal, cleaved) MRKTKTEALKAKEHLMLAALETFYRKGIARTSLNEIAQAAGVTRGALYWHFKNKEDLFDALFQRICDDIENCIAQDAADAEGGSWTVFRHTLLHFFERLQSNDIHYKFHNILFLKCEHTEQNAAVIAIARKHQAIWREKITAVLTEAVENQDLADDLDKETAVIFIKSTLDGLIWRWFSSGESFDLGKTAPRIIGIMMDNLENHPCLRRK | 2 |
| MtrR(W49F) (natural protein, Neisseria gonorrhoeae, MtrR of Neisseria gonorrhoeae, point mutant; Made by site-directed mutagenesis of the mtrR-pMCSG7 construct; source: expressed from the pMCSG7 vector, purified (Ni-NTA, TEV cleavage, Ni-NTA, S200 size exclusion); not shown: His6, N-terminal, cleaved) MRKTKTEALKTKEHLMLAALETFYRKGIARTSLNEIAQAAGVTRGALYFHFKNKEDLFDALFQRICDDIENCIAQDAADAEGGSWTVFRHTLLHFFERLQSNDIHYKFHNILFLKCEHTEQNAAVIAIARKHQAIWREKITAVLTEAVENQDLADDLDKETAVIFIKSTLDGLIWRWFSSGESFDLGKTAPRIIGIMMDNLENHPCLRRK | 2 |
| MtrR(T43S) (natural protein, Neisseria gonorrhoeae, MtrR of Neisseria gonorrhoeae, point mutant; Made by site-directed mutagenesis of the mtrR-pMCSG7 construct; source: expressed from the pMCSG7 vector, purified (Ni-NTA, TEV cleavage, Ni-NTA, S200 size exclusion); not shown: His6, N-terminal, cleaved) MRKTKTEALKTKEHLMLAALETFYRKGIARTSLNEIAQAAGVSRGALYWHFKNKEDLFDALFQRICDDIENCIAQDAADAEGGSWTVFRHTLLHFFERLQSNDIHYKFHNILFLKCEHTEQNAAVIAIARKHQAIWREKITAVLTEAVENQDLADDLDKETAVIFIKSTLDGLIWRWFSSGESFDLGKTAPRIIGIMMDNLENHPCLRRK | 2 |

Biological target: the molecule itself
Assay: crystal structure; MtrR dimer bound to a 21-mer operator oligoduplex (Semet-MtrR with rpoH, native MtrR with mtrCDE); hanging drop, 200 mM calcium acetate, 27% PEG 8000, 100 mM Tris pH 7.5

| Protein | binding result |
| --- | --- |
| Selenomethionine-derivatized MtrR (natural protein, selenomethionine-derivatized, MtrR, TetR-family transcriptional repressor of Neisseria gonorrhoeae, product of the mtrR gene; Same construct as m1 with methionines as selenomethionine; also called Semet-MtrR; not shown: His6, N-terminal, cleaved) MRKTKTEALKTKEHLMLAALETFYRKGIARTSLNEIAQAAGVTRGALYWHFKNKEDLFDALFQRICDDIENCIAQDAADAEGGSWTVFRHTLLHFFERLQSNDIHYKFHNILFLKCEHTEQNAAVIAIARKHQAIWREKITAVLTEAVENQDLADDLDKETAVIFIKSTLDGLIWRWFSSGESFDLGKTAPRIIGIMMDNLENHPCLRRK | binds |
